Experimental data as given in the nanobody polyreactivity screen of Harvey et al. (2022).

Assay: yeast display, Sf9 membrane polyspecificity reagent, FACS + sequencing; frameworks hold sequencing errors
Summary of the method: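 Using colony PCR, genes from sorted yeast display clones were amplified, then sequenced on MiSeq at 2 × 250 and filtered by CDR length. The clones had been stained with 10% biotinylated, detergent-solubilized Sf9 membrane reagent for 1 hour at 4 °C and sorted by FACS into low and high (top ~1%) gates on anti-HA and streptavidin fluorescence. Polyreactivity labels come from the gate of origin.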

Sequence	polyreactivity (PSR sort gate)
QVQLVESGGGLDQAGGSLRLSCAASGSISQVYAMGWYRQATGKERELVAVINDADDTSYADSVKGRFTISRDNAKNTVYLQMNSLKPEDTAVYYCAAESSYFVALTQFYTVEFYYWGQGTQLTVSS	low polyreactivity
QVHLVESGGGLVQAGGSLRLSCAASGSTFWGYTMGWYRQAPGKERELVAAISTIGGSTYYADSVKGRFTISRDNAKNTVYLQMNSLKTEDTAVYYCAAYKGKHYKEGYWGQGTQVTVSS	low polyreactivity
QVQLVESGGGLVQAGGSLRLICAASGSTFGWYAMGWYRQAPGQERELVAAISWGGGSTYYADSVKGRFTISRDNAKNTVYLQMNSLKPEVTAVYYCAKVPLTYSRSGYEYDYWGQGTQVTVSS	low polyreactivity
QVQLVESGGGLVHAGGSLRLSCAASGYTFRYYAKGWYRQAPGKERELVAAINSGDITNYADSVKGRFTITRDNAKTTVYLQMNSLKPEDTAVYFCARSTFSLYDYWGQGTQVTVSS	low polyreactivity
QVQLVESGGGLVQAGGSLRLSCAASGSTSRYYDMGWYRQAPGKERELVATITISGITNYADSLKGRFTISRDNAKNTVYLQMNSLKPEDTAVYYCATVGPWPGEYDYWGQGTQVTVSS	low polyreactivity
QVQLVESGGGLVQAGGSLRLSCAASGYTLGSYAMGWYRQAPGKERELVATITWGGGSTDYADSVKGRFTISRDNAKNTVYLQMNSLKPEDTAVYYCAAEDDSYDVEGSLYYWGQGTQVTVSS	low polyreactivity
QVQLVESGAGLVQAGGSLRLSCAASGRTFDSNAMGWYRQAPGKEREFFASIRWTVTSTYYADSVKGRFTISRDNAKNTVYLQMNSLKPEDTAVYYCNAEDYYYVGRSDYWGQGTQVTVSS	low polyreactivity
QVQLVESGGGLVQAGGSLRLSCAASGRIFWYNAMGWSRQAPGKERELVAAISSIDGTTYYADSLKGRFTISRDNAKNTFYLQMNSLKPEDTAVYYCAAEDPADQYDYWGQGTQVTVSS	high polyreactivity
QVQLVESGGGVVQAGGSLRLSCAASGSILNNYAMGWYRPAPGKERELVAAISSSGGTNYADSVKGRFTISRDNAKNTVFLQMNSLKPEDTAVYYCNADVLDGGYVYWGQGTQVTVSS	low polyreactivity
QVHLVGSGGCLVQAGGSLRLSCAASGITFYYYVMGWYRQSPGKERELVAAINSGGSTNYADSVKGRFTISRDNAKNTVYLQMNSLKPEDTAVYYCNAYTVRSYRFDYWGQGTQVTVSS	high polyreactivity
QVQLVESGGGLVQAGGSLRLSCAASGSTFGPYAMGWYRQAPGKERELVAAISRGGSTYYADSVKGRFTISRDNAKNTVYLQMNSLKPEDTAVYYCAARYVRVGYDYWGQGTQVTVSS	high polyreactivity
QVHLVESCGGLVQAGGSLRLSCAASGFTFYTYTMGWYRQAPGKERELVAVISRSGGSTYYADSVKGRFTISRDNAKNTVYLQMNSLKPEDTAVYYCNAGYWRFIDSYDYWGQGTQVTVSS	high polyreactivity
QVQLVESGGGLVQAGGSLRLSCAASGIIVPNAMGWYRQAPGKERELVAVITSGGSTYYADSVKGRFTISRDNAKNTVYLQMNSLKPEDTAVYYCNKDYAAIDRYDSWGQGTQVTVSS	low polyreactivity
QVQLVESGGGLVQAGGSLRLSCAASGRTFSRYAMGWYRQSPGKERELVAAITSGGGSTYYADSVKGRFTISRDNAKNTVYLQMNSLKPEDTAVYYCAVRSAPIVYVYVASWWSLYDYWGQGTQVTVSS	low polyreactivity
QVQLVETGGGLVQAGGSLRLSCAASGGSFTYNALGWDRQSPGKERALVAAITDSGGSTFADSVKGRFTISRDIAKNNVYLQMNSLKPEDTAVYYCAAGDGDTGSMYLRKLSDYWGQGTQVTVSS	low polyreactivity
QVQLVESGGRLVQAGGSLRLSCAASGRTFVYNAMGWYRQAPGKESELVAAISSGGGTNYADSVKGRFTISRDNAKNTVYLQMNSLKPEDTAVYYCAAGFDGSRHPGFDSWGQGTQVTVSS	low polyreactivity
QVQLVESGGGLVQAGGSLRLSCAASGRTFKDYAMGWYRQAPGKERELVAAISWSGGDTYYADSVKGRVTISRDNAKNTVYLQMNSLKPEDTAVYYCNADPSGVFFYSLEFDYWGQGTQVTVSS	low polyreactivity
QVQLVESGGGLVQAGGSLRLSCAASGSTFRQYAMGWYRQAPGKERELVAATTSSGGSTYYADSVKGRFTISRDNAKNTVYLQMNSLKPDDTAVYYCNVDGRSDGDDYWGQGTHVTVSS	low polyreactivity
QVLLVESGGGLVQAGGSLRLSCAASRSIFEVNPMGWYRQAPGKERELVAAISCSGGSTYYADSVKGRFTISRDNAKNTVYLQMNSLKPEDTAVYYCAARQAGYSGRKLYYWGQGTQVTVSS	low polyreactivity
QVQLVESGGGLVQAGGSLRLSCAASGFTFPYYAMGWYRQAPGTERELVASNSRSGSTNYADSVKGRFTISRDNAKNTVYLQMNSLKPEDTAVYYCAAQLYSRGGYWGHGTQVTVSS	high polyreactivity
QVQLVESGGGLVQAGGSLRLSCAASGFTFNRYAMGWYRQAPGKERELVASITTGGRTNYADSVKGRFTISRDNAKNTVYLQMNSLKPEDTAVYYCAADYGYFYRYYYWGQGTQVTVSS	high polyreactivity

Sequence	polyreactivity (PSR sort gate)
QVQLVESGGGLVQAGGRLRLSCAASGRIFKWYPMGLYRQAPGKERELVAAITSGGSTYYADSVKGRFTISRDNAKNTVYLQMNSLNPEDTAVYYCAAPVYLYGTVGRGDYWGQGTQVTVSS	high polyreactivity
QVQLVESGGGLVQAGGSLRLSCAASGRILTYNAMGWYRQAPGKERELVATISARGSRTYYADSVKGRFTISRDNAKNTVYLQMNSLKPEDTAVYYCNAAVGYYSYSYYTKVGVDYWGQGTQVTVSS	high polyreactivity
QVKLLESVGGLVQAGGSLRLSCMASGSILGDRMSWYRQPPGKEHELVATIYDGGITYYADSMKGRFTISRDNAKNTVYLQMNSLRPEDTAVYYCGASLEGYRYHVYCGQGTQVTVSS	low polyreactivity
QVQLVESGGGLVQAGGSLRLSCAASGFTFHYYAMGWYRQAPGKERELVAAISRGGGNTYYADSVKGRFTISRDNAKNTVYLQMNSLKPEDTAVYYCAADSKYRFSHGLDYWGQGTQVTVSS	high polyreactivity
QDQLVQSGGGLVQAGGSLRLSCAASGFTFYYYAMGWYRQAPGKETELVAGISKSGGITYYADSVKGRFTISRDNAKNTVYLQMNSLKPEDTAVYYCAAAAWYQFFLYRYTYEYWGQGTQVTVSS	low polyreactivity
QVQLVESGGGLVQAGGSLRLSCADSGFTFSLNTMGWYRQAPGKERELVAAINSGDSTYADSVKGRFTISRDNAKNTVYLQMNSLKPEDTAVYYCNADPDWWYPYIYWGQGTQVTVSS	low polyreactivity
QVQLVESGGGLVQAGGSLRLSCAASGRTFGLNVMGWYRPAPGKDRELVATISGVGSTNYADSVKGRFTISRDNAKNTVYLQMNSLKPEDTAVYYCAAGGTSGQEFGYWGQGTQVTVSS	low polyreactivity
QVQLVESGGGLVQAGGSLRLSCAASGSIISYYAMGWYRQAPGKERELVAAISWSGGSTYYADSVKGRFTISRDNAKNTVYLQMNSLKPEDTAVYYCNTVRRLKRYSSYGHDYWGQGTQVTVSS	high polyreactivity
QVQLVESGGGLVQAGGSLRLSCAASGFTFGPYAMGWYRQAPGKERELVAAISQSGGRTSYADSVKGRFTISRDNAKNTVYLQMNSLKPEDTSVYYCAKRAYGYRSIYRMDYWGQGTQVTVSS	high polyreactivity
QVPIVESGGGLVQAGGSLRLSCAAYGIIFRLNAMGWNTQAPGKERELVAAITRRGGTTYYADSVKGRFTISRDNAKNTVYLQMNSLKPEDTAVYYCNTFYYWQYDWGQGTQVTESS	high polyreactivity
QVQLVESGGGLVQAGGSLRLSCAASGFIFYYNAMGWSRQAPGKERELVASISRDCGRTYYADSVKGRFTISRDNAKNTVYLQMNSLKPEDTAVYYCAKKRINSRKYDYWGQGPQVTVSS	low polyreactivity
QVQLVESGGGLVQAGGSLRLSCAASGFTLGRYAMGWYRQAPGKEREFVAAISSSGTTTNYADSVKGRFTISRDNAKNTVYLQMNSLKPEDTAVYFCNAYTTKRRWIKYDYWGQGTQVTVSS	high polyreactivity
QVQLVESVGGLVQAGGSLRLSCAASGFNFDYYTMGWYRQAPGKEREFVAAINRRGDITYYADSVKGRFTISRDNAKNTVYLQMNSLKPEDTAVYYCAANLTCSSRYEYGYWGQGTQVTVSS	low polyreactivity
QVQLVESGGGLVQAGGSLRLSCAASGSLFYINAMGWYRQAPGKERELVAAITSDGSTYYADSVKGRFTISRDNAKNTVYLQMNSLKPEDTAVYYCAADLTSDQYLYYWYWFYSWGQGTQVTVSS	low polyreactivity
QVQLVESGGGLVQAGGSLRLSCAASGIIFRRYAMGWYRQAPGKERELVAAITRGGITYYADSVKGRFTISRDNAKNTVYLQMNSLKPEDTAVYYCAATYSGTYSLGRGYDYWGQGTQVTVSS	low polyreactivity
QVQLVESGGGLVKAGGSLRLSCAASGFIFRYYAMGWYRQAPGKERELVAAITSTGRTYYADSVKGRFTISRDNAKNTVYLQMNSLKPEDTAVYYCAKRSYPWGQGTQVTVSS	low polyreactivity
QVQLVESGGGLVQAGGSLRLSCAASGSTFTGNAMGWYRQAPGKERELVAAISRSGGRTYYADSVKGRFTISRDNAKNTVYLQMNILKPEDTGVYYCNAVRNRGQRTAFDYWGQGTQVTVSS	high polyreactivity
QVQLVESGGGLVQAGGSLRLSCAATGRTFTGNVMGWYRQAPGKERELVAAISRSGTSTYYADSVKGRFTISRDNAKNTVYLQMNSLKPEDTAVYYCAARRTAGYRSGEYDYWGQGTQVTVSS	high polyreactivity
QVQLEESAGGLVQAGGSLRLSCAASGRTFRRYAMGWYRPAPGKERELVAVISSGGRTNYADSVKGRFTISRDNAKNTVYLQLNSLKPEDTAVYYCNAGPLYSGVYSGYFWGQGTQVTVSS	high polyreactivity
QVQLVESGGGLVQAGGSLRLSCAASGSTFLANTMGWYRQAPGKEREFVAAITRRGGSTYYADSVKGRFTISRDNAKNTVYLQMNSLKPEDTAVYYCNAEWDFQYPYDYWGQGTQVTVSS	low polyreactivity
